Data taken from article PMC4694752 (Molecular Biology of the Cell, 2016).

T1: GST-Sec23 (yeast, UniProt P15303 1-768)
T1 sequence (looked up): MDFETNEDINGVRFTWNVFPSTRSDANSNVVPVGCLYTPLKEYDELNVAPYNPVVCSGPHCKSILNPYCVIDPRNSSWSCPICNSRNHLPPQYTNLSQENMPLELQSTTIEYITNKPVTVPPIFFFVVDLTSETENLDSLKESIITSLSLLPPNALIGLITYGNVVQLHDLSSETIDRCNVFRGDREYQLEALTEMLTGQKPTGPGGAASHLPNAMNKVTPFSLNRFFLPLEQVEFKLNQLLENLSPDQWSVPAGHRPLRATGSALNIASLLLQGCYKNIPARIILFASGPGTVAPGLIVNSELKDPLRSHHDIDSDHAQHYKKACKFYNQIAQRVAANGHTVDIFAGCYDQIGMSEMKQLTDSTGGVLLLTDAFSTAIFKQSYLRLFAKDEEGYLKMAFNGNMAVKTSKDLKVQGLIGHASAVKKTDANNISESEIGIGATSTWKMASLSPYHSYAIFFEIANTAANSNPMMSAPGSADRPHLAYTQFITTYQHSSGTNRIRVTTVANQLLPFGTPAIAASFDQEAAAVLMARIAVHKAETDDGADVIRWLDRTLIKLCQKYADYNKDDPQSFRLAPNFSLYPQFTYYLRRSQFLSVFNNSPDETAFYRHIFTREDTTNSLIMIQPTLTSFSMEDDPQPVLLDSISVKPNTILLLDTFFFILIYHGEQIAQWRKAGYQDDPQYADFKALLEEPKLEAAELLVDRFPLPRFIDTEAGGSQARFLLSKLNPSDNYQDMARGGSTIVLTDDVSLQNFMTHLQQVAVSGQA

T2: GST-Sec24 (yeast, UniProt P40482 1-926)
T2 sequence (looked up): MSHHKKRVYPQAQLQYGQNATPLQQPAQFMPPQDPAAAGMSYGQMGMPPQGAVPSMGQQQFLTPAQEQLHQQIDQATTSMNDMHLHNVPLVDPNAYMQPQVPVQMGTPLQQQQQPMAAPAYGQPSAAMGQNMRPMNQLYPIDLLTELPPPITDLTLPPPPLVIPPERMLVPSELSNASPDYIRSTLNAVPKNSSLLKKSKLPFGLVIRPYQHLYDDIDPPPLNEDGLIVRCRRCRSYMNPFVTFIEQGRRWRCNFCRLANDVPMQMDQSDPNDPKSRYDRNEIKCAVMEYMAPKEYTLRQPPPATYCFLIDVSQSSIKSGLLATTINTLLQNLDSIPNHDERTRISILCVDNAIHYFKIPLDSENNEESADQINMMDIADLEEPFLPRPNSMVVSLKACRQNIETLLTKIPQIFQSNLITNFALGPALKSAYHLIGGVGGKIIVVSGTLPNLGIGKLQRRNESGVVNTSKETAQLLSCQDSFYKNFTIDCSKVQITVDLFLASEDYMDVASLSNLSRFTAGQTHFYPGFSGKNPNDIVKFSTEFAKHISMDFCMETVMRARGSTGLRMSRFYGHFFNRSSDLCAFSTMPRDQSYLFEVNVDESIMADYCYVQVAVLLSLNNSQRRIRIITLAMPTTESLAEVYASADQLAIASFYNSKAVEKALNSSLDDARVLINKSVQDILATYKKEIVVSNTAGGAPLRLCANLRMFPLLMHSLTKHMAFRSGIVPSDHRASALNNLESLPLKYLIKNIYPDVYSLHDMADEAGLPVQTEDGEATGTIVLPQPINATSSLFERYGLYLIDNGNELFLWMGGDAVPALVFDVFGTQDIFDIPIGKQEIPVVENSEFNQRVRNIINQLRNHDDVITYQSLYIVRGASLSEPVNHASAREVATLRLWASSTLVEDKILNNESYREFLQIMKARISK

T3: His6-Sec31 (aa 1–500) (yeast, UniProt P38968 1-500)
T3 sequence (looked up): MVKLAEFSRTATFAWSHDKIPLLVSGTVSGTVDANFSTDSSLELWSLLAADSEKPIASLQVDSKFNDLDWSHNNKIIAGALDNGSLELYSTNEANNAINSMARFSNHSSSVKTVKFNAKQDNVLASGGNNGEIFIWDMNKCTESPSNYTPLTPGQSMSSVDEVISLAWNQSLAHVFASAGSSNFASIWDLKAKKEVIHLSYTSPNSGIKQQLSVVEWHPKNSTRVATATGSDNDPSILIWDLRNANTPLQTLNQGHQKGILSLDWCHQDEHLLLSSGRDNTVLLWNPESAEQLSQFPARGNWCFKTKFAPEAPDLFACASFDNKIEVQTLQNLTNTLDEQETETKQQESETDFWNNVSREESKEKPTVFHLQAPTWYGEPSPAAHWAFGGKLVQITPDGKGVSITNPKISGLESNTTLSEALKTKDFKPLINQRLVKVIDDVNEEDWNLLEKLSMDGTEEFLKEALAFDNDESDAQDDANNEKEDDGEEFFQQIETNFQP


How the values were obtained:
Test in all cases: pull-down
GST-Sec23 = target: T1, GST-Sec23
GST-Sec24 = target: T2, GST-Sec24
His6-Sec31 (aa 1–500) = target: T3, His6-Sec31 (aa 1–500)

Row | Binder | binding result (GST-Sec23) | binding result (GST-Sec24) | binding result (His6-Sec31 (aa 1–500))
1 | His6-auxilin (natural protein, yeast, UniProt Q06677 1-668, looked up) MSDPFAHLLTSLKNKDSASASKETTPQSSNSPSITGSAVADVARTDKSPNDSLHSISAPPLIPSPKVDFSAPPLVPTNSTTKSNTANNTPPSALANTDDDFNQLFGMGTVTTTDTIQKPDEDYYGSKEDHLYNGDDALVDEVKDMEIARLMSLGLSIEEATEFYENDVTYERYLEILKSKQKERNDLAIRKKESGIKMEKSGLSNIVGTDSNNLFSMATDFFNKGKKLVDQWTSFPPEANDRLNNYSKTHDKVEDYDLPQVNDSPNRILFEDNEVVENLPPADNPDQDLLTDFETKIDITKRTAPDVSHSSSPTSGILIEENSRRNEPLIEDSLLDFSEGNLTNSKSNEDSTLFNENSNTDSTIPISDIELSGYNEFKAKGTSLFKNGDYINSLQEYEKSLNTLPLNHPLRIIALSNIIASQLKIGEYSKSIENSSMALELFPSSKAKWKNKISNSDPERSFNDIWPKIMIRRAESFEHLESFKKALETYQELIKKNFFDDKIMQGKRRCQDFINPPPVKKSMPVKKKTTTTSPATKKQNLTASSSNSPISVDSTSEIKKRELENAKLALYDKVFEKISSWKDGKDDDIRHLLANLSSLLTWCNWKDVSMQDLVMPKRVKITYMKAVAKTHPDKIPESLSLENKMIAENIFSTLSIAWDKFKLQNDIN | binds | binds | –
2 | GST-auxilin-TPR domain (aa 363–561) (domain or fragment, yeast, UniProt Q06677 363-561, looked up) TIPISDIELSGYNEFKAKGTSLFKNGDYINSLQEYEKSLNTLPLNHPLRIIALSNIIASQLKIGEYSKSIENSSMALELFPSSKAKWKNKISNSDPERSFNDIWPKIMIRRAESFEHLESFKKALETYQELIKKNFFDDKIMQGKRRCQDFINPPPVKKSMPVKKKTTTTSPATKKQNLTASSSNSPISVDSTSEIKKR | – | – | binds
